Data published in the RNAGym collection of RNA variant scans (doi:10.1073/pnas.2313332121).

B1: TPR t1 (parent)
chain: GACCAAUCUGCCCUCAGAGCUCGAGAACAUCUUCGGAUGCAGAGGAGGCAGGCUUCGGUGGCGCGAUAGCGCCAACGUCCUCAACCUCCAAUGCAUCCCACCACAUGAUGAUGCCUGAAGAGCCUUGGUUUUUUG

Variants of: B1
Test: polymerase ribozyme fitness, log enrichment relative to wild type (log ratio); higher = more active; in vitro selection for triplet polymerase activity
Summary of the method: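 PCR was used to build mutant libraries for each subunit of a heterodimeric triplet polymerase ribozyme, which were then transcribed. A single in vitro selection round, in triplicate, used a frozen incubation at −7 °C and recovered extended constructs by gel excision, streptavidin beads and RT-PCR. Fitness is the logarithm of genotype enrichment relative to wild-type enrichment, averaged over replicates with inverse-variance weights. The logarithm is base 2, and after Illumina sequencing only genotypes with ≥10 input reads and ≥1 read per output were kept.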

Row | Variant | polymerase ribozyme fitness (log ratio)
1 | C62U G113C C124A U133A | -2.07
2 | G61C A100U A111G G113A | -4.64
3 | C62G C101U | -1.28
4 | C62G U106C U131A | -2.52
5 | G61U G69U G120A | 0.591
6 | G61C C115U | -3.07
7 | G61C C98U | -2.55
8 | C62U U126G | -3.05
9 | G61U U78G U112G | 0.877
10 | C62G U87A | -2.48
11 | G61U G77C C79U | -0.442
12 | G61A U92A | -2.76
13 | C62U A111U | -2.55
14 | G60U G63U G113U G117U | -5.19
15 | G61C C70U | -4.17
16 | G61A A74C C79A U131G | -1.98
17 | C62U C94U | -0.381
18 | C62A U130A | -1.33
19 | C62G C94U | -1.28
20 | C62U G71U G120U | 0.0266
21 | G63A A83G A90G C98G A105C | -7.87
22 | C62A U132A | -0.682
23 | C62A U132C | -0.866
24 | C62U U112G C115A U126G | -2.54

Row | Variant | polymerase ribozyme fitness (log ratio)
25 | G61A A84U G117A | -1.64
26 | G60C U78A | -0.111
27 | G61A C64U C86A | -4.48
28 | G63A A83G U106A | -3.25
29 | G61C G65A | -4.9
30 | G61C C88A | -2.91
31 | G60U U116C U132A | -0.473
32 | G61U C97A C124A | -2.39
33 | G60A G69A U87A | -3.78
34 | G61A C97A C124U | -3.09
35 | G61A C79U C88A U129G | -1.53
36 | G60U C102U U116A | -4.78
37 | C62A G113U C114G | -4.19
38 | G61A U92A C123A | -2.16
39 | C62U G77A U87A A111U G122U | -5.7
40 | G61U U116A | -3.38
41 | G61A C73A A118G | -1.71
42 | G61C U78G U130G | -4.62
43 | G61U A111C | -0.083
44 | G61U A111G | 0.628
45 | C62A A68G C72U | -3.88
46 | G63A A66C | -2.96
47 | G63A A66G | -1.9
48 | C62G C115A | -1.81

Row | Variant | polymerase ribozyme fitness (log ratio)
49 | G61C A84C | -1.86
50 | G61A C79A C114A | -3.21
51 | G60C U109G | -5.41
52 | G60C C73U U130G | -0.603
53 | G61A C124A | 1.79
54 | G60C G69U G93A G113C | -5.05
55 | G60A U112A | 1.13
56 | C62A C98U C123A | -2.16
57 | G63A C64U C73G C80U G93A C97U G117U | -6.14
58 | G61A C102G | -6.12
59 | G60A G110A U112C | -1.67
60 | G60C G128C | -2.73
61 | G60A G113A | -0.894
62 | G60A G113U | -1.94
63 | G61U G77A U130G | -0.935
64 | G63A A84U C115A U125G | -0.899
65 | G61A G120A C123U | 1.5
66 | G61A U112C | 1.57
67 | C62U C98G | -5.88
68 | G60C C85U U96A U106C A119U | -4.09
69 | G61U C104U A108C A121U | -2.95
70 | G61U C82A C89G C101A C102A U112C C123A | -7.12
71 | G61C A103C U109G | -5.79
72 | C62U U78C | -0.402

Row | Variant | polymerase ribozyme fitness (log ratio)
73 | G60C C86A G117C C123U | -6.38
74 | G60A G93U | -1.61
75 | G60A G93A A121U | 1.81
76 | G61A G93A A105G G122A | -5.32
77 | G63A C70A A95C | -3.3
78 | G60U U116C | 0.0833
79 | C62G C99U A121G | -4.31
80 | G60A G69U | -0.576
81 | G61U C72U U131A | -0.274
82 | C62G G117A U129G | -6
83 | G61C C101U | -1.77
84 | G61U G117U | -1.34
85 | G61U G117C | -2.09
86 | G61U U81G C86U G120U U133A | -4.06
87 | G61A A91C C94G A105C U109A A119C | -7.38
88 | G60C U78A A91U | -2.07
89 | G60U G135U | -0.871
90 | G60U G135C | 0.0909
91 | G61A G77U | 0.142
92 | G60C C98G | -6.74
93 | G60U C123A | 0.751
94 | G61C G63U | -5.51
95 | G61C G63A | -4.78
96 | G60A U81G U109A C124A | -7.74

Row | Variant | polymerase ribozyme fitness (log ratio)
97 | G61C A90U | -4.47
98 | G61U U92A | -2.49
99 | C62A C101U C114U C124A | -3.63
100 | G60U G65U A121C | -6.44
101 | G60U A111G U126A | -1.33
102 | C62A C104A A119U | -3.63
103 | G61U U109A U125A | -5.58
104 | G60A G120U | 0.305
105 | G60C U130C | -1.11
106 | C62U G93U U112G U129A | -3.65
107 | C62G A84U A108G | -5.29
108 | G60A U78C C97G | -4.55
109 | C62A G110U | -2.92
110 | C62A G110C | -5.17
111 | G60U C86U | -1.37
112 | G61A C85G G93A C101G | -2.53
113 | G63A A121U | 0.59
114 | C62U C72U U92C U96C | -2.18
115 | G60C G61C C73G C101G A111U G113C C123U U125G U126G | -7.1
116 | C62A C97U U106A | -1.52
117 | G61A G120U | 0.215
118 | G61A G120C | 1.14
119 | G60U U92C U106C G107A U112C | -6.06
120 | C62U G117A U131A | -1.44

Row | Variant | polymerase ribozyme fitness (log ratio)
121 | G61A G69C | -3.18
122 | G61A U132A | 0.242
123 | G61A A121U | 2.32
124 | G60C A95G | 0.473
125 | G61A A68G | -2.69
126 | G60C C97G U109A | -7.09
127 | G61C C97A | -4.3
128 | G60U C62G U92C | -2.78
129 | G61A U81A | -0.273
130 | G63A A105G | -3.92
131 | G60C G93A | -0.963
132 | G61U G69C C72U A111C | -6.94
133 | G60A G128A | -2.27
134 | G60C C79G G122A | -2.36
135 | G61A A74C | -1.86
136 | G61U U109G | -4.68
137 | G60C C99U G117A U133G | -6.01
138 | C62U G120U | -0.189
139 | G61C C101A U112G | -3.98
140 | C62A C115U | -2.53
141 | C62U G93C A105U | -3.5
142 | C62U A108G | -1.69
143 | C62G C79U U81A C85A | -6.14
144 | G61C U92A C98U C101U U106A U112G G120C | -7.61

Row | Variant | polymerase ribozyme fitness (log ratio)
145 | C62U C89A C124A | 0.0858
146 | G60C C97A | -4.44
147 | G60U G110C | -2.76
148 | C62U G128C U133C | -2.74
149 | G61A U106A G113C | -1.85
150 | C62G U129A | -3.98
151 | G61C C70U C114U G127U | -4.4
152 | G61U C79A C99A G120C | -6.8
153 | C62U A74U | -0.71
154 | C62A U78G U87C | -1.47
155 | G61U C72U | -0.409
156 | G60C C76U | -3.93
157 | G60U A121G | 1.76
158 | G61U A91U | -1.05
159 | G61A U133G | -0.781
160 | G61A A91C C123U | 0.543
161 | G61A A103U | -4.95
162 | G61A A103G | -2.38
163 | G61U C62A | -5.14
164 | C62A U131A | -0.5
165 | G61U A108C | -3.81
166 | C62U U96A | -0.822
167 | C62U U78A U96C | -0.0957
